Ends that are not written are not given here. fluorescein = fluorescein label on the N-terminus
Biological target: T1, ubiquitin-fold modifier 1 (UFM1) (human, UniProt P61960 1-83)
T1 construct: ubiquitin-fold modifier 1 (UFM1), human; the form that ends at Gly 83 (the residues missing in the models are counted up to Gly 83); pET15b, N-terminal His6 followed by a TEV site; purified by the protocol of the UBA5 constructs, which removes the tag; In solution a monomer and a fraction of dimer; also called UFM1 WT; UFM1 alone; source: E. coli, purified (His-Trap, TEV cleavage, second …)
Assay: fluorescence polarisation; UFM1 at various concentrations with 120 nM N-terminal fluorescein-labeled UIS peptide; 50 mM Hepes pH 7.5, 150 mM NaCl, 5% glycerol, 0.2 mg/ml BSA; room temperature; triplicate; one site specific binding fit
Conditions: both partners purified

T1 sequence (P61960 1-83): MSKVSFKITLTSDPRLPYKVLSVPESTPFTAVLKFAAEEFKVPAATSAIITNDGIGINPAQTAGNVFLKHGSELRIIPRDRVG

Kd: 8.47 µM
B1: fluorescein-labeled UIS peptide (amino acids 334–346 of UBA5) (peptide, UniProt Q9GZZ9 334-346, looked up)
peptide: fluorescein-IIHEDNEWGIELV
notes: source: synthetic peptide
